Here are results for 6 substances from patent US20090239794A1, “HCV F PROTEIN AND USES THEREOF” (priority 2004, published 2009).

Test [1] deals with Fmut8Δ11 protein (recombinant ARFP (hepatitis C virus subtype 1a (HCV-1a)) (UniProt P0C045)). The test is described as follows: ELISA Control 4: ARFP, no first antibody, secondary alone; row 1/100. A general note: In an ELISA, binding on a coated surface is turned into a signal by an enzyme label.
The target is the same in test [2]. The test is described as follows: ELISA Control 4: ARFP, no first antibody, secondary alone; row 1/400.
Test [3] has as its target Fmut8Δ11 protein (recombinant ARFP, truncated HCV-1a F protein lacking the first 11 N-terminal amino acids) (HCV-1a) (UniProt P0C045). The test is described as follows: ELISA Control 4: ARFP, no serum, secondary antibody alone; row 1/100.
The target of test [4] is Fmut8Δ11 protein (recombinant ARFP (hepatitis C virus subtype 1a (HCV-1a)) (UniProt P0C045)). The test is described as follows: ELISA Control 4: ARFP, no first antibody, secondary alone; row 1/200.
The target is the same in test [5]. The test is described as follows: ELISA Control 4: ARFP, no first antibody, secondary alone; row 1/800.
The target in test [6] is Fmut8Δ11 protein (recombinant ARFP, truncated HCV-1a F protein lacking the first 11 N-terminal amino acids) (HCV-1a) (UniProt P0C045). The test is described as follows: ELISA Control 4: ARFP, no serum, secondary antibody alone; row 1/1600.
Test [7] has the same target. The test is described as follows: ELISA Control 4: ARFP, no serum, secondary antibody alone; row 1/400.
Test [8] shares this target. The test is described as follows: ELISA Control 4: ARFP, no serum, secondary antibody alone; row 1/200.
Test [9] has as its target Fmut8Δ11 protein (recombinant ARFP (hepatitis C virus subtype 1a (HCV-1a)) (UniProt P0C045)). The test is described as follows: ELISA Control 4: ARFP, no first antibody, secondary alone; row 1/50.
Test [10] addresses Fmut8Δ11 protein (recombinant ARFP, truncated HCV-1a F protein lacking the first 11 N-terminal amino acids) (HCV-1a) (UniProt P0C045). The test is described as follows: ELISA Control 4: ARFP, no serum, secondary antibody alone; row 1/50.
Test [11] shares this target. The test is described as follows: ELISA Control 4: ARFP, no serum, secondary antibody alone; row 1/800.
For test [12], the target named is Fmut8Δ11 protein (recombinant ARFP (hepatitis C virus subtype 1a (HCV-1a)) (UniProt P0C045)). The test is described as follows: ELISA Control 4: ARFP, no first antibody, secondary alone; row 1/1600.
The target of test [13] is Fmut8Δ11 protein (recombinant ARFP, truncated HCV-1a F protein lacking the first 11 N-terminal amino acids) (HCV-1a) (UniProt P0C045). The test is described as follows: ELISA, serum 1/400, day 52.
For test [14] the target is unchanged. The test is described as follows: ELISA, serum 1/1600, day 14.
For test [15] the target is unchanged. The test is described as follows: ELISA, serum 1/400, day 29.
The target is the same in test [16]. The test is described as follows: ELISA, serum 1/400, day 14.
For test [17] the target is unchanged. The test is described as follows: ELISA, serum 1/50, day 29.
Test [18] has the same target. The test is described as follows: ELISA, serum 1/200, day 14.
The target is the same in test [19]. The test is described as follows: ELISA, serum 1/100, day 14.
The target is the same in test [20]. The test is described as follows: ELISA, serum 1/50, day 52.
Test [21] shares this target. The test is described as follows: ELISA, serum 1/200, day 52.
Test [22] has the same target. The test is described as follows: ELISA, serum 1/800, day 14.
Test [23] shares this target. The test is described as follows: ELISA, serum 1/1600, day 29.
Test [24] shares this target. The test is described as follows: ELISA, serum 1/800, day 29.
Test [25] has the same target. The test is described as follows: ELISA, serum 1/50, day 14.
Test [26] has the same target. The test is described as follows: ELISA, serum 1/100, day 29.
Test [27] has the same target. The test is described as follows: ELISA, serum 1/200, day 29.
Test [28] has the same target. The test is described as follows: ELISA, serum 1/100, day 52.
The target is the same in test [29]. The test is described as follows: ELISA, serum 1/1600, day 52.
Test [30] shares this target. The test is described as follows: ELISA, serum 1/800, day 52.

For “AP conjugated goat anti-mouse Ig [G, A, M] (antibody)”, the OD410 in test [1] turned out to be 0.127 OD410; in test [2], 0.11 OD410; in test [3] it was 0.129; in test [4] it was 0.106 OD410; in test [5] it was 0.109 OD410; in test [6], 0.111. The OD410 in test [7] amounted to 0.111; in test [8] it was 0.108; in [9] it was 0.194 OD410; in [10] it was 0.131; in test [11] it was 0.112; in [12], 0.109 OD410.
For “serum of mouse 11, protocol 2, mock immunization (PBS) (antibody)”, the OD410 in [13] turned out to be 0.149; in test [14], 0.113; in test [15] it was 0.128; in test [16], 0.116; in test [17], 0.307; in test [18], 0.135. Further, the OD410 in [19] is 0.154; in test [20] it was 0.35; in test [21], 0.133; in [22] it was 0.114; in test [23], 0.123; in [24] it was 0.127. Moreover, the OD410 was found to be 0.108 in test [25]; 0.19 in test [26]; 0.153 in test [27]; 0.173 in test [28]; 0.117 in test [29]; 0.118 in [30].
Turning to “serum of mouse 16, protocol 2, mock immunization (PBS) (antibody)”, the OD410 in test [13] was 0.134; in [14] it was 0.123; in [15] it was 0.151; in test [16], 0.121; in test [17] it was 0.327; in test [18], 0.13. The OD410 in [19] came out at 0.174; in test [20] it was 0.231; in test [21], 0.149; in [22], 0.13; in test [23] it was 0.116; in [24], 0.129. Moreover, the OD410 in test [25] was 0.249; in [26], 0.325; in [27], 0.196; in [28], 0.194; in [29], 0.123; in test [30], 0.107.
For “serum of mouse 19, protocol 2, mock immunization (PBS) (antibody)”, the OD410 was 0.135 in test [13]; 0.129 in test [14]; 0.54 in test [15]; 0.142 in test [16]; 0.444 in test [17]; 0.144 in test [18]. The OD410 turned out to be 0.18 in [19]; 0.313 in [20]; 0.143 in test [21]; 0.13 in [22]; 0.119 in test [23]; 0.139 in test [24]. The OD410 was determined as 0.23 in [25]; 0.27 in test [26]; 0.184 in test [27]; 0.175 in test [28]; 0.126 in [29]; 0.12 in test [30].
As to “serum of mouse 20, protocol 2, mock immunization (PBS) (antibody)”, the OD410 is 0.141 in test [13]; 0.118 in test [14]; 0.133 in [15]; 0.121 in test [16]; 0.51 in test [17]; 0.138 in test [18]. The OD410 in [19] was 0.168; in [20], 0.247; in [21], 0.146; in [22] it was 0.136; in [23], 0.141; in test [24] it was 0.13. For the same substance, the OD410 amounted to 0.245 in [25]; 0.181 in test [26]; 0.154 in test [27]; 0.182 in [28]; 0.127 in test [29]; 0.127 in test [30].
With “serum of mouse 15, protocol 2, mock immunization (PBS) (antibody)”, the OD410 is 0.177 in [13]; 0.116 in test [14]; 0.113 in [15]; 0.144 in [16]; 0.253 in test [17]; 0.146 in test [18]. Besides, the OD410 amounted to 0.162 in test [19]; 0.376 in test [20]; 0.151 in test [21]; 0.118 in test [22]; 0.122 in test [23]; 0.13 in test [24]. Besides, the OD410 in test [25] came to 0.229; in test [26], 0.16; in [27] it was 0.123; in test [28], 0.215; in test [29], 0.136; in [30], 0.134.
